B1: EHEE_rd4_0726 (parent)
chain: DIEITTNGEEDAKRVIKELQKRNLEYHIEVHGNQWVIKVR

Variants of: B1
Experiment: folding stability dG (cDNA display proteolysis); higher = more stable
Settings: PBS, room temperature

Point of comparison: DIEITTNGEEDAKRVISELQKRNLEYHIEVHGNQWVIKVR [K17S], “folding stability dG” value 2.31 kcal/mol. Against it:
- DIEITTNGEEDAKRVIWELQKRNLEYHIEVHGNQWVIKVR [K17W] — higher, 2.36 kcal/mol
- DIEITTNGEEDAKRVIPELQKRNLEYHIEVHGNQWVIKVR [K17P] — lower, 0.05 kcal/mol
- DIEITTNGEEDAKRVIDELQKRNLEYHIEVHGNQWVIKVR [K17D] — lower, 2.06 kcal/mol
- DIEITTNGEEDAKRVILELQKRNLEYHIEVHGNQWVIKVR [K17L] — higher, 2.74 kcal/mol
- DIEITTNGEEDAKRVIAELQKRNLEYHIEVHGNQWVIKVR [K17A] — higher, 2.74 kcal/mol
- DIEITTNGEEDAKRVIFELQKRNLEYHIEVHGNQWVIKVR [K17F] — higher, 2.5 kcal/mol
- DIEITTNGEEDAKRVIQELQKRNLEYHIEVHGNQWVIKVR [K17Q] — higher, 2.46 kcal/mol
- DIEITTNGEEDAKRVIRELQKRNLEYHIEVHGNQWVIKVR [K17R] — higher, 2.7 kcal/mol
- DIEITTNGEEDAKRVIGELQKRNLEYHIEVHGNQWVIKVR [K17G] — lower, 1.97 kcal/mol
- DIEITTNGEEDAKRVITELQKRNLEYHIEVHGNQWVIKVR [K17T] — lower, 2.15 kcal/mol
- DIEITTNGEEDAKRVINELQKRNLEYHIEVHGNQWVIKVR [K17N] — lower, 2.05 kcal/mol
- DIEITTNGEEDAKRVIVELQKRNLEYHIEVHGNQWVIKVR [K17V] — lower, 2.29 kcal/mol
- DIEITTNGEEDAKRVIMELQKRNLEYHIEVHGNQWVIKVR [K17M] — higher, 2.64 kcal/mol
- DIEITTNGEEDAKRVIHELQKRNLEYHIEVHGNQWVIKVR [K17H] — lower, 2.26 kcal/mol
- DIEITTNGEEDAKRVIIELQKRNLEYHIEVHGNQWVIKVR [K17I] — higher, 2.46 kcal/mol
- DIEITTNGEEDAKRVIEELQKRNLEYHIEVHGNQWVIKVR [K17E] — higher, 2.49 kcal/mol
- DIEITTNGEEDAKRVIYELQKRNLEYHIEVHGNQWVIKVR [K17Y] — higher, 2.43 kcal/mol
- DIEITTNGEEDQKRVIKELQKRNLEYHIEVHGNQWVIKVR [A12Q] — lower, 0.813 kcal/mol
- DIEITTNGEEDRKRVIKELQKRNLEYHIEVHGNQWVIKVR [A12R] — lower, 1.17 kcal/mol
- DIEITTNGEEDPKRVIKELQKRNLEYHIEVHGNQWVIKVR [A12P] — lower, -0.076 kcal/mol
- DIEITTNGEEDTKRVIKELQKRNLEYHIEVHGNQWVIKVR [A12T] — lower, 1.74 kcal/mol
- DIEITTNGEEDYKRVIKELQKRNLEYHIEVHGNQWVIKVR [A12Y] — lower, 1.82 kcal/mol
- DIEITTNGEEDVKRVIKELQKRNLEYHIEVHGNQWVIKVR [A12V] — lower, 1.74 kcal/mol
- DIEITTNGEEDMKRVIKELQKRNLEYHIEVHGNQWVIKVR [A12M] — higher, 2.51 kcal/mol
- DIEITTNGEEDNKRVIKELQKRNLEYHIEVHGNQWVIKVR [A12N] — lower, 0.444 kcal/mol
- DIEITTNGEEDSKRVIKELQKRNLEYHIEVHGNQWVIKVR [A12S] — lower, 1.28 kcal/mol
- DIEITTNGEEDWKRVIKELQKRNLEYHIEVHGNQWVIKVR [A12W] — lower, 1.51 kcal/mol
- DIEITTNGEEDAKRVIKGLQKRNLEYHIEVHGNQWVIKVR [E18G] — lower, 1.69 kcal/mol
- DIEITTNGEEDAKRVIKDLQKRNLEYHIEVHGNQWVIKVR [E18D] — lower, 1.84 kcal/mol
- DIEITTNGEEDAKRVIKLLQKRNLEYHIEVHGNQWVIKVR [E18L] — higher, 2.65 kcal/mol
- DIEITTNGEEDAKRVIKTLQKRNLEYHIEVHGNQWVIKVR [E18T] — lower, 1.95 kcal/mol
- DIEITTNGEEDAKRVIKPLQKRNLEYHIEVHGNQWVIKVR [E18P] — lower, -0.054 kcal/mol
- DIEITTNGEEDAKRVIKALQKRNLEYHIEVHGNQWVIKVR [E18A] — higher, 2.43 kcal/mol
- DIEITTNGEEDAKRVIKNLQKRNLEYHIEVHGNQWVIKVR [E18N] — lower, 1.86 kcal/mol
- DIEITTNGEEDAKRVIKFLQKRNLEYHIEVHGNQWVIKVR [E18F] — higher, 2.73 kcal/mol
- DIEITTNGEEDAKRVIKMLQKRNLEYHIEVHGNQWVIKVR [E18M] — higher, 2.86 kcal/mol
- DIEITTNGEEDAKRVIKYLQKRNLEYHIEVHGNQWVIKVR [E18Y] — higher, 2.87 kcal/mol
- DIEITTNGEEDAKRVIKQLQKRNLEYHIEVHGNQWVIKVR [E18Q] — lower, 2.19 kcal/mol
- DIEITTNGEEDAKRVIKSLQKRNLEYHIEVHGNQWVIKVR [E18S] — lower, 2.04 kcal/mol
- DIEITTNGEEDAKRVIKVLQKRNLEYHIEVHGNQWVIKVR [E18V] — higher, 2.32 kcal/mol
- DIEITTNGEEDAKRVIKILQKRNLEYHIEVHGNQWVIKVR [E18I] — higher, 2.68 kcal/mol
- DIEITTNGEEDAKRVIKKLQKRNLEYHIEVHGNQWVIKVR [E18K] — lower, 1.81 kcal/mol
- DIEITTNGEEDAKRVIKCLQKRNLEYHIEVHGNQWVIKVR [E18C] — higher, 3.47 kcal/mol
- DIEITTNGEEDAKRVIKRLQKRNLEYHIEVHGNQWVIKVR [E18R] — lower, 2.01 kcal/mol
- DIEITTNGEEDAKRVIKHLQKRNLEYHIEVHGNQWVIKVR [E18H] — lower, 2.02 kcal/mol
- DIEITTNGEEDAKRVIKWLQKRNLEYHIEVHGNQWVIKVR [E18W] — higher, 3.42 kcal/mol
- DIEITTNGEEDAARVIKELQKRNLEYHIEVHGNQWVIKVR [K13A] — higher, 2.4 kcal/mol
- DIEITTNGEEDANRVIKELQKRNLEYHIEVHGNQWVIKVR [K13N] — higher, 2.32 kcal/mol
- DIEITTNGEEDAIRVIKELQKRNLEYHIEVHGNQWVIKVR [K13I] — higher, 2.52 kcal/mol
- DIEITTNGEEDATRVIKELQKRNLEYHIEVHGNQWVIKVR [K13T] — lower, 1.96 kcal/mol
- DIEITTNGEEDACRVIKELQKRNLEYHIEVHGNQWVIKVR [K13C] — higher, 2.59 kcal/mol
- DIEITTNGEEDAGRVIKELQKRNLEYHIEVHGNQWVIKVR [K13G] — lower, 1.76 kcal/mol
- DIEITTNGEEDAHRVIKELQKRNLEYHIEVHGNQWVIKVR [K13H] — lower, 2.24 kcal/mol
- DIEITTNGEEDASRVIKELQKRNLEYHIEVHGNQWVIKVR [K13S] — lower, 1.93 kcal/mol
- DIEITTNGEEDADRVIKELQKRNLEYHIEVHGNQWVIKVR [K13D] — lower, 1.72 kcal/mol
- DIEITTNGEEDAYRVIKELQKRNLEYHIEVHGNQWVIKVR [K13Y] — higher, 2.73 kcal/mol
- DIEITTNGEEDAVRVIKELQKRNLEYHIEVHGNQWVIKVR [K13V] — lower, 2.12 kcal/mol
- DIEITTNGEEDAMRVIKELQKRNLEYHIEVHGNQWVIKVR [K13M] — higher, 2.96 kcal/mol
- DIEITTNGEEDALRVIKELQKRNLEYHIEVHGNQWVIKVR [K13L] — higher, 2.76 kcal/mol
- DIEITTNGEEDAWRVIKELQKRNLEYHIEVHGNQWVIKVR [K13W] — higher, 3 kcal/mol
- DIEITTNGEEDARRVIKELQKRNLEYHIEVHGNQWVIKVR [K13R] — higher, 2.71 kcal/mol
